From patent US20090155283A1 (published 2009) come the findings set out here.

The chains are these.
T1: IL-1R1 on MRC-5 cells (ATCC CCL-171) (human, UniProt P14778 18-569)
T1 sequence (looked up): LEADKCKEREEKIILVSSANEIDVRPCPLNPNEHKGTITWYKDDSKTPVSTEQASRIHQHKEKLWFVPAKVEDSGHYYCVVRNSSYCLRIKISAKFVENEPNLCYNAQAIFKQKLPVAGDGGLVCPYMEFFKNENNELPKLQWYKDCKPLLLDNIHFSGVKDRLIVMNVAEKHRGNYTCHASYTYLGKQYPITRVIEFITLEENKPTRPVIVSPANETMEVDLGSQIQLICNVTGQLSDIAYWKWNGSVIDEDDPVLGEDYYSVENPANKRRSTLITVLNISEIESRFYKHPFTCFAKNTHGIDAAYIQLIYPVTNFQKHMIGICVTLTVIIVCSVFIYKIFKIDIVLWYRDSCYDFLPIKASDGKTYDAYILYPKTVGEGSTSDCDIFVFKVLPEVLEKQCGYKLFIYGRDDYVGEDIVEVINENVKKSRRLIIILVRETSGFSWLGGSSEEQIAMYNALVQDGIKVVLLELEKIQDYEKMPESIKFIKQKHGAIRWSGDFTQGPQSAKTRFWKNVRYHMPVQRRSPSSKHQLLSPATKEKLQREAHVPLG

B1: DOM4-122-6 (other)
VL: DIQMTQSPSSLSASVGDRVTITCRASQWIGRELRWYQQKPGKAPMFLIYHASRLQSGVPSRFSGSGSGTDFTLTISSLQPEDFATYYCQQYHGWPLTFGQGTKVEIKR
B2: DOM4-122-23 (other)
VL: DIQMTQSPSSLSASVGDRVTITCRASQWIGRELRWYQQKPGKAPMFLIYHASRLQRGVPSRFSGSGSGTDFTLTISSLQPEDFATYYCQQYHGWPLTFGQGTKVEIKR
B3: DOM4-129-1 (other)
VL: DIQMTQSPSSLSASVGDRVTITCRASQNIDRELRWYQQKPGKAPMFLIYHASRLQRGVPSRFSGSGSGTDFTLTISSLQPEDFATYYCQQYHDFPLTFGQGTKVEIKR

The target of the experiment is T1, IL-1R1 on MRC-5 cells (ATCC CCL-171). Briefly: cell-based or functional assay.
Take B1: the “ND50, inhibition of IL-1-induced IL-8 release from MRC-5 cells” value was around 10 nM.
Turning to B2, the “ND50, inhibition of IL-1-induced IL-8 release from MRC-5 cells” value is around 1 nM.
In the case of B3 it was around 10 nM.
